According to publication PMC6996649, “Rational Engineered C-Acyltransferase Transforms Sterically Demanding Acyl Donors” (ACS Catalysis, 2019):

How the values were obtained:
Assay type in all cases: biochemical, Pseudomonas protegens
CCCC(=O)c1c(O)cc(O)cc1O = tested on: T1, CCCC(=O)c1c(O)cc(O)cc1O; assay: purified protein; settings: disproportionation to 3a (DBPG), 100 mM potassium phosphate pH 7.5, 35 °C
T1 construct: PhlABC multi-subunit acyltransferase from codon-harmonized construct, recombinant in E. coli, purified enzyme; with 2,4-diacetylphloroglucinol biosynthesis acyltransferase subunit PhlA; 2,4-diacetylphloroglucinol biosynthesis acyltransferase subunit PhlB

CC(=O)c1c(O)cc(O)cc1O = tested on: T2, CC(=O)c1c(O)cc(O)cc1O; assay: purified protein; settings: disproportionation to DAPG, 100 mM potassium phosphate pH 7.5, 35 °C
T2 construct: PhlABC multi-subunit acyltransferase from codon-harmonized construct, recombinant in E. coli, purified enzyme; with 2,4-diacetylphloroglucinol biosynthesis acyltransferase subunit PhlA; 2,4-diacetylphloroglucinol biosynthesis acyltransferase subunit PhlB

COCC(=O)Oc1ccccc1 = tested on: T3, COCC(=O)Oc1ccccc1; assay: HPLC assay of resorcinol acylation; settings: 10 mM resorcinol as acceptor, 100 mM imidazole, potassium phosphate pH 7.5, 35 °C
T3 construct: PhlABC multi-subunit acyltransferase from codon-harmonized construct, recombinant in E. coli, purified enzyme; with 2,4-diacetylphloroglucinol biosynthesis acyltransferase subunit PhlA; 2,4-diacetylphloroglucinol biosynthesis acyltransferase subunit PhlB
Description: (§1) HPLC assay of resorcinol acylation on PpATaseCH

CCCC(=O)Oc1ccccc1 = tested on: T4, CCCC(=O)Oc1ccccc1; assay: HPLC assay of resorcinol acylation; settings: 10 mM resorcinol as acceptor, 100 mM imidazole, potassium phosphate pH 7.5, 35 °C
T4 construct: PhlABC multi-subunit acyltransferase from codon-harmonized construct, recombinant in E. coli, purified enzyme; with 2,4-diacetylphloroglucinol biosynthesis acyltransferase subunit PhlA; 2,4-diacetylphloroglucinol biosynthesis acyltransferase subunit PhlB
Description: as §1

“PpATaseCH (Pseudomonas protegens Pf-5; F148V)” was tested, and the Km (CCCC(=O)c1c(O)cc(O)cc1O) was 540 ± 70 µM, the Vmax (CCCC(=O)c1c(O)cc(O)cc1O) was 620 µM/min and the kcat (CCCC(=O)c1c(O)cc(O)cc1O) was 5.3 ± 0.6 s⁻¹. It also gave a kcat/Km (CCCC(=O)c1c(O)cc(O)cc1O) of 9900 ± 800 M⁻¹ s⁻¹, a Km (CC(=O)c1c(O)cc(O)cc1O) of 240 ± 90 µM and a Vmax (CC(=O)c1c(O)cc(O)cc1O) of 820 µM/min. The kcat (CC(=O)c1c(O)cc(O)cc1O) was 7.2 ± 1.9 s⁻¹, the kcat/Km (CC(=O)c1c(O)cc(O)cc1O) was 31000 ± 4000 M⁻¹ s⁻¹ and the Km (COCC(=O)Oc1ccccc1) was 5000 ± 1000 µM. It also gave a Vmax (COCC(=O)Oc1ccccc1) of 580 µM/min, a kcat (COCC(=O)Oc1ccccc1) of 0.188 ± 0.016 s⁻¹ and a kcat/Km (COCC(=O)Oc1ccccc1) of 38.7 ± 8.5 M⁻¹ s⁻¹. For the same substance, the Km (CCCC(=O)Oc1ccccc1) was 3200 ± 100 µM, the Vmax (CCCC(=O)Oc1ccccc1) was 40 µM/min and the kcat (CCCC(=O)Oc1ccccc1) was 0.012 ± 0.002 s⁻¹. It also gave a kcat/Km (CCCC(=O)Oc1ccccc1) of 3.7 ± 0.6 M⁻¹ s⁻¹.
